Assay results as given in patent US20240216425A1, “Engineered Macrophages for Cancer Immunotherapy” (The Trustees of the University of Pennsylvania, priority 2022, published 2024).
Entries after “also recorded” stand apart in the source; their conditions may differ. Where two headings read alike, the source gives them in different places.

Assays:
[1] = molecular target: Tyrp1 (tyrosinase-related protein 1) on B16-F10 mouse melanoma cells (mouse) (UniProt P07147); assay: flow cytometry titration on B16 cells, secondary antibody AF647, median fluorescence fit to y=A*x/(K+x); apparent K on cells
CD47 KO B16 tumoroids = assay: Immuno-tumoroid growth with bone marrow-derived macrophages; type: cell-based, mouse; conditions: for tumoroid elimination and macrophage clusters: macrophages pre-treated with cytokine (20 ng/mL, 48 h)
Experimental: (§1) Tumoroids. To generate surfaces conducive to B16 tumoroid formation, 96-well plates (Greiner Bio-One 650161) were either coated with 70 μL of 2% agarose in water or PBS or, more commonly, treated for 20 min with 100 μL of anti-adherence rinsing solution (StemCell Technologies 07010). The wells were washed with PBS, and then blocked with 0.5-1% (w/v) bovine serum albumin (BSA, Sigma) 37° ° C. for 1 h. B16 were detached by brief trypsinization, resuspended in RPMI supplemented with 10% FBS, 1× non-essential amino acid solution (Gibco 11140050) and 1 mM sodium pyruvate (Gibco 11360070) at a concentration of 1×103 or 1×10^4 per mL, and added to passivated wells in a volume of 100 μL. A single aggregate of B16 cells formed in each well, typically within 12 h. For tumoroid disaggregation studies, EDTA and EGTA were added in PBS to obtain a final concentration of 2 mM, and in some cases magnesium sulphate was also added for a final concentration of 5 mM Mg2+. Latrunculin A (Invitrogen L12370) dissolved at 1 μM in DMSO was further diluted in PBS and added to obtain a final concentration of 1 μM. For phagocytosis versus growth studies, CellTracker Deep Red-labeled BMDMs and antibodies (final concentration 20 μg/mL anti-Tyrp1 and/or 20 μg/mL anti-CD47 or 10 μg/mL anti-SIRPα) or mouse serum (final concentration 1:200) were added 24 h later in a volume of 20 μL RPMI growth media with 120 ng/mL M-CSF. For myosin-II inhibition studies, 20 μM blebbistatin (MilliporeSigma 203389) or an equal volume of DMSO vehicle was added to B16 tumoroids for 1 h prior to addition of BMDMs. Tumoroids were imaged on the Olympus IX microscope with 20×/0.4 NA, 10×/0.3 NA, or 4×/0.13 NA objectives. Tumoroid areas were measured in Fiji/ImageJ after thresholding GFP fluorescence using built-in thresholding algorithms and manually adjusting the threshold as needed.
Statistical analysis and curve fitting. Statistical analyses and curve fitting were performed in Prism v8.4-v9.4 (GraphPad) and MATLAB R2020a (MathWorks). Details for each analysis are provided in figure legends, and exact p values are provided. […]

[2] = molecular target: CD47 on B16-F10 mouse melanoma cells (also on RM-9 mouse prostate cancer cells) (mouse) (UniProt Q61735); assay: flow cytometry titration on B16 cells, secondary antibody AF647, median fluorescence fit to y=A*x/(K+x); apparent K on cells
B16 tumoroids = type: cell-based, mouse
Experimental: as §1, with “A single aggregate of B16 cells formed in each well, typically within 12 h.” left out

[3] = test system: macrophages in CD47 KO tumoroids; assay: Macrophage clustering in tumoroids (entropy image analysis, radial profiles, cluster area); type: cell-based, mouse; conditions: 2 mM chelator added ~24 h after macrophages and anti-Tyrp1, read 3 h later
Experimental: as §1, with “A single aggregate of B16 cells formed in each well, typically within 12 h.” left out, “For phagocytosis versus growth studies, CellTracker Deep Red-labeled BMDMs and antibodies (final concentration 20 μg/mL anti-Tyrp1 and/or 20 μg/mL anti-CD47 or 10 μg/mL anti-SIRPα) or mouse serum (final concentration 1:200) were added 24 h later in a volume of 20 μL RPMI growth media with 120 ng/mL M-CSF. For myosin-II inhibition studies, 20 μM blebbistatin (MilliporeSigma 203389) or an equal volume of DMSO vehicle was added to B16 tumoroids for 1 h prior to addition of BMDMs. Tumoroids were imaged on the Olympus IX microscope with 20×/0.4 NA, 10×/0.3 NA, or 4×/0.13 NA objectives.” left out

macrophage monocultures = assay: Macrophage monocultures on non-adhesive surfaces, clustering; type: cell-based, mouse; conditions: 20 ng/mL cytokine
Experimental: Bone marrow-derived macrophages (BMDMs). Bone marrow was harvested from donor mice, lysed with ACK buffer (Gibco A1049201) to deplete red blood cells, and cultured on Petri dishes for 7 days in IMDM (Gibco 12440053) supplemented with 10% FBS, 1% P/S, and 20 ng/ml recombinant mouse macrophage colony-stimulating factor (M-CSF, BioLegend 576406). Successful differentiation was confirmed by flow cytometry staining with antibodies against macrophage markers. Cytokine-primed BMDMs were cultured in RPMI growth media+20 ng/ml M-CSF+20 ng/mL IFNγ (BioLegend 575302) or 20 ng/ml IL-4 (BioLegend 574302) for 48 h prior to use in tumoroid assays or prior to analysis of protein expression by flow cytometry. […]
Entropy image analysis. Fluorescence images of CellTracker Deep Red-labeled macrophages were converted to binary images of black cells on a white background using the Otsu threshold algorithm in ImageJ. The number of dark pixels was determined from the image histogram, and the image was saved as a PNG file, which is a form of lossless file compression to determine the compressed file size as a measure of entropy. Random and structured images were generated and analyzed using the Python NumPy and PIL/Pillow packages, respectively.

[4] = 2 mM EDTA or EGTA, 1 μM Latrunculin A

UniProt Q61735, sequence (Q61735 19-303): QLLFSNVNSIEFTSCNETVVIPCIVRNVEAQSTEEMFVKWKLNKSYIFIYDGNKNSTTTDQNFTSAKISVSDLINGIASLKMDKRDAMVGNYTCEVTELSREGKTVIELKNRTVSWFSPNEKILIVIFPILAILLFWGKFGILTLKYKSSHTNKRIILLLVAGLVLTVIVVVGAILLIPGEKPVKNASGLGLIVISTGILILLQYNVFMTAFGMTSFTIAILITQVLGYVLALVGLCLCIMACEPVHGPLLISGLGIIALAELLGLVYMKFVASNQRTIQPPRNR
UniProt P07147, sequence (P07147 25-537): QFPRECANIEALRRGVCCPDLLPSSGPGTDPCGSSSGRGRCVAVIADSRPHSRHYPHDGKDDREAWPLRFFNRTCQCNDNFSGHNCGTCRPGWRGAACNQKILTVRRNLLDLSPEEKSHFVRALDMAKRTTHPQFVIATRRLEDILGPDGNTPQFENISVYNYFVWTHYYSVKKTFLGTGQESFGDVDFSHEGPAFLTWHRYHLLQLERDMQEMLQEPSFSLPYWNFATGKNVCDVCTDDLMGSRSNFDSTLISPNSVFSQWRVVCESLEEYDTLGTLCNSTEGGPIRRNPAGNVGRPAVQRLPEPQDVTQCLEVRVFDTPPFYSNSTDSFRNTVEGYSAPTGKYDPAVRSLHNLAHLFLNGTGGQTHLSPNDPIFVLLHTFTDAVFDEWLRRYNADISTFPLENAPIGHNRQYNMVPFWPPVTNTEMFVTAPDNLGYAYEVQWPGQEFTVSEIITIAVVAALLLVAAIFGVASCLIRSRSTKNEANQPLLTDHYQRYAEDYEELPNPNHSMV

Molecule: anti-mouse/human Tyrp1 clone TA99 (BioXCell BE0151) (antibody)
- Kd [1]: 47 nM

Molecule: Cc1ccc2c(c1)C(=O)C1(O)CCN(c3ccccc3)C1=N2 (centres unmarked) [blebbistatin]
- tumoroid growth repression by macrophages (CD47 KO B16 tumoroids; 20 μM): not affected

Molecule: anti-mouse CD47 clone MIAP301 (BioXCell BE0270) (antibody)
- Kd [2]: 25 nM

Molecule: O=C(O)CN(CCN(CC(=O)O)CC(=O)O)CC(=O)O [EDTA]
- tumoroid projected area / B16 aggregates (B16 tumoroids): rapid (<1 h) increase
- macrophage cluster projected area / disaggregation of macrophages [3]: rapid disaggregation of macrophages; also recorded: increases significantly

Molecule: O=C(O)CN(CCOCCOCCN(CC(=O)O)CC(=O)O)CC(=O)O [EGTA]
- tumoroid projected area / B16 aggregates (B16 tumoroids; [4]): did disrupt B16 aggregates; also recorded: rapid (<1 h) increase

Molecule: C/C1=C/C(=O)O[C@@H]2C[C@@H](CC[C@H](C)/C=C\C=C\CC1)O[C@@](O)([C@@H]1CSC(=O)N1)C2 [Latrunculin A]
- tumoroid projected area / B16 aggregates (B16 tumoroids; [4]): rapid (<1 h) increase

B1: IFNγ: interferon-γ cytokine used to prime macrophages (BioLegend 575302) (protein, UniProt P01580 23-155, looked up)
Interferon gamma: HGTVIESLESLNNYFNSSGIDVEEKSLFLDIWRNWQKDGDMKILQSQIISFYLRLFEVLKDNQAISNNISVIESHLITTFFSNSKAKKDAFMSIAKFEVNNPQVQRQAFNELIRVVHQLLPESSLRKRKRSRC
- macrophage clustering in monoculture (macrophage monocultures): cluster
- tumoroid elimination and macrophage clusters (CD47 KO B16 tumoroids): promoted

B2: IL-4: interleukin-4 cytokine used to prime macrophages (BioLegend 574302) (protein, UniProt P07750 21-140, looked up)
Interleukin-4: HIHGCDKNHLREIIGILNEVTGEGTPCTEMDVPNVLTATKNTTESELVCRASKVLRIFYLKHGKTPCLKKNSSVLMELQRLFRAFRCLDSSISCTMNESKSTSLKDFLESLKSIMQMDYS
- macrophage clustering in monoculture (macrophage monocultures): disperse
- tumoroid elimination and macrophage clusters (CD47 KO B16 tumoroids): has the opposite effects and disperses macrophages
